The source of these data is US20230242601A1 (published 2023).

One may read the Kd as the concentration at which binding is half-saturated. Lower therefore signals higher affinity.

Sequence of FABP3 fused with a His-tag at the N-terminus (chain, as listed by the source): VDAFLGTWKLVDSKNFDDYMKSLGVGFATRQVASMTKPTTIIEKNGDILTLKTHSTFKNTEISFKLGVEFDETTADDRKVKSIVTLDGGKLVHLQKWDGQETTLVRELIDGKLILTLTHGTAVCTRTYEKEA

This test addresses FABP3 fused with a His-tag at the N-terminus. As to the kind of experiment: QCM.
Turning to EEGYQDYEPEA [SynP130-140 peptide], the Kd is 6.1 nM. Under EEGWQDWEPEA [SynP130-140 Y133W/Y136W] stands 6.2 nM. Under EEGFQDFEPEA [SynP130-140 Y133F/Y136F] stands 2.1 nM; under EEGYQDFEPEA [SynP130-140 Y136F], 7.7 nM. For EEGFQDWEPEA [SynP130-140 Y133F/Y136W], binding was put at a Kd of 6.1 nM. Under EEGYQDWEPEA [SynP130-140 Y136W] stands 6.3 nM.
